For this assay, the target named is mGCSF (R&D Systems Cat#414-CS) (mouse (printed as 'm')) (UniProt P09920). Put plainly: cell-based or functional assay.
Sequence of UniProt P09920 (P09920 31-208 limits assumed): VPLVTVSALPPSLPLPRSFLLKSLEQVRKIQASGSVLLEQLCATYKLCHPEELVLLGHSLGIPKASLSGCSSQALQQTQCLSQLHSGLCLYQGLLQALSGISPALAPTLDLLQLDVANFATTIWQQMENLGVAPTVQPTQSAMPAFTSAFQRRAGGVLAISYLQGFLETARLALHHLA

In the case of “soluble hG-CSFR-Fc protein (from UniProt Q99062 25-627) (Fc fusion)”, the inhibition of mG-CSF proliferation of hG-CSFR BaF3 cells (MTS reduction), IC50 came to 22 pM.

Consider “Neutralizing anti-G-CSF (MAB414), R&D Systems (antibody)”, for which the inhibition of mG-CSF proliferation of hG-CSFR BaF3 cells (MTS reduction), IC50 is 10 pM.

(Values after patent publication US20140234303A1.)
